For orientation: stoichiometry N means the number of molecules, sites or subunits per partner or assembly.

In paper doi:10.1101/2020.09.29.318733 one finds stoichiometry N data, which are given here for two substances.

One assay deals with Kohinoor. Briefly: SEC. For orientation: Size exclusion chromatography separates by hydrodynamic size, large species first.
A further assay concerns the target Padron. In words: SEC.

The substance Kohinoor came in with a stoichiometry N with Kohinoor of 2.
As for Padron, the stoichiometry N with Padron came to 4.
